In US20210371517A1:
Read-outs that look alike come from different tables or passages of the source.

Legend:
Test in all cases: cell-based or functional assay
CD171 (L1CAM) (human) [1] = biological target: CD171 (L1CAM) (human) (UniProt P32004)
CD171 (L1CAM) (human) [2] = biological target: CD171 (L1CAM) (human) (UniProt P32004); remark: listed apart in the source
Fas (CD95) (human) = Fas (CD95) (human) (UniProt P25445)
UniProt P25445, sequence (P25445 26-335): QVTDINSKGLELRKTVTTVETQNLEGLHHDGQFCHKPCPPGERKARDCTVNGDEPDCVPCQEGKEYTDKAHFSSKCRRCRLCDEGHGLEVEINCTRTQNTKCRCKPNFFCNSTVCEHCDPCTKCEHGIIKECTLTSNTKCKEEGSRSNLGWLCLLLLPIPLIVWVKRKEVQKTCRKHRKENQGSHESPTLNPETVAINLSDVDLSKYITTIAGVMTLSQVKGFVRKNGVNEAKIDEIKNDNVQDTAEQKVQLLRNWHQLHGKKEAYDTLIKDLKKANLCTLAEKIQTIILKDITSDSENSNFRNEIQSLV

UniProt P32004, sequence (P32004 20-1257): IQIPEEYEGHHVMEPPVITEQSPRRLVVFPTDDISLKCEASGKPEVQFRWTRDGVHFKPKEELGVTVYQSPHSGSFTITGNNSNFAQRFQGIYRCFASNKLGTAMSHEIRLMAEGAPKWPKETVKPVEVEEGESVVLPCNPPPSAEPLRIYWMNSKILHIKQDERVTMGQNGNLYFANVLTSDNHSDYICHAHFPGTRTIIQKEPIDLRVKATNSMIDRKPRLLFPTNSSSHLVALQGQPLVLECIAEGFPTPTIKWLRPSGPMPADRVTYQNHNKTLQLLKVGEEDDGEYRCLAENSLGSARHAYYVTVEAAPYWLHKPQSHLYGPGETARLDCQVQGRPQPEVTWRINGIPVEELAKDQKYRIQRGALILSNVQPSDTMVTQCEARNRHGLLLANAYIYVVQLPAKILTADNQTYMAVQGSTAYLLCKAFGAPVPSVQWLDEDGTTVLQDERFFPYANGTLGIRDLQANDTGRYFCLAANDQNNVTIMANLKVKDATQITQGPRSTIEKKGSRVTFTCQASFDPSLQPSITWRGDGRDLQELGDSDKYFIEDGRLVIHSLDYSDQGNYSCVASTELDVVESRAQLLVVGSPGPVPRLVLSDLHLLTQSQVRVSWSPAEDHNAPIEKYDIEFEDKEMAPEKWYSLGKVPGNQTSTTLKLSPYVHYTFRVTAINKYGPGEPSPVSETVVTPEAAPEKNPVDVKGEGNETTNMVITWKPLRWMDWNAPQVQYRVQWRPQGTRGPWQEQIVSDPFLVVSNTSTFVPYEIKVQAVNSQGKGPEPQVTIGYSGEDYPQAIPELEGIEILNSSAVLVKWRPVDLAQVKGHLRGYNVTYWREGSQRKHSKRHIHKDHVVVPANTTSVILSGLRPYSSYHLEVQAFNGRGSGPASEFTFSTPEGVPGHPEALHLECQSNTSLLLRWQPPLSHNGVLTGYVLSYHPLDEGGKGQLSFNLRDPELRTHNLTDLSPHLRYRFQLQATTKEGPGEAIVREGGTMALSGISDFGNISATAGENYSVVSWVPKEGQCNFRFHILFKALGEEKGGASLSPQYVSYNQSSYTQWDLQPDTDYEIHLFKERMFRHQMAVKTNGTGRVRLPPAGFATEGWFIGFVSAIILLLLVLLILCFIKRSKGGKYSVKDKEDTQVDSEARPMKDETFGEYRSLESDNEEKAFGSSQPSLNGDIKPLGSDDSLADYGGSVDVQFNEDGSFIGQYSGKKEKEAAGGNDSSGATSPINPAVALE
CE7scFv-IgG4hinge-CD28tm/cyto-4-1BB-zeta (short) CD171-specific chimeric receptor with two costimulatory domains, sequence (main): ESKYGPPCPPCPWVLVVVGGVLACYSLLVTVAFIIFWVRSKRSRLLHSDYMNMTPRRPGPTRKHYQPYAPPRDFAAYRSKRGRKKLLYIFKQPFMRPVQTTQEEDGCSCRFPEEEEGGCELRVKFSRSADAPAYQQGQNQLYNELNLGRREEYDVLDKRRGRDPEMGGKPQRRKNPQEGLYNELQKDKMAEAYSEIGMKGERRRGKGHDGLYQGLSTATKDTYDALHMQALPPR

| % CD25+CD69+ T cells after round III of tumor cell co-culture (CD171 (L1CAM) (human) [1]) | IL-2 secretion in Be2 co-culture, fold over 2G-CAR(SS) (CD171 (L1CAM) (human) [1]) | TNF-α secretion in Be2 co-culture, fold over 2G-CAR(SS) (CD171 (L1CAM) (human) [1]) | cytolytic activity against Be2 targets, fold over 2G-CAR(SS) (CD171 (L1CAM) (human) [1]) | induction of CD137 expression upon tumor contact, fold over 2G-CAR(SS) (CD171 (L1CAM) (human) [1]) | % CD25+CD69+ T cells after round III of tumor cell co-culture (CD171 (L1CAM) (human) [2]) | % CD25+CD69+ T cells, stress test round I with Be2 cells (CD171 (L1CAM) (human) [1]) | % CD25+CD69+ T cells, stress test round II with Be2 cells (CD171 (L1CAM) (human) [1]) | % CD25+CD69+ T cells, stress test round III with Be2 cells (CD171 (L1CAM) (human) [1]) | IFN-γ secretion in Be2 co-culture, fold over 2G-CAR(SS) (CD171 (L1CAM) (human) [1]) | percentage of cells expressing activation marker CD137, fold over CD171-CAR(SS) (CD171 (L1CAM) (human) [1]) | phospho-ERK level after co-culture with CD171+ Be2 cells, fold over CD171-CAR(SS) (CD171 (L1CAM) (human) [1]) | Substance | T cell viability of 2G-CAR(LS) CTLs after round III following siRNA knockdown of Fas, fold increase (Fas (CD95) (human)) | T cell viability of 2G-CAR(LS) CTLs after round III following siRNA knockdown of FasL, fold increase (Fas (CD95) (human)) |
| --- | --- | --- | --- | --- | --- | --- | --- | --- | --- | --- | --- | --- | --- | --- |
| 60% | 5.1 fold | 2.5 fold | 1.3 fold | 8.4 fold | – | – | – | – | – | – | – | CE7scFv-IgG4hinge-CD28tm/cyto-4-1BB-zeta (short) CD171-specific chimeric receptor with two costimulatory domains | – | – |
| – | 6.3 fold | 6.1 fold | – | – | 66% | 79.4% | 74% | 65.7% | 8.4 fold | 5.7 fold | 3.1 fold | Ce7scFv-IgG4hinge-CH2-CH3-CD28tm/4-1BB-zeta (long construct) CD171-specific chimeric receptor | – | – |
| – | – | – | – | – | – | – | – | – | – | – | – | Fas ligand (FasL, CD178) (from UniProt P48023 1-281) | 1.4 fold | 1.6 fold |
| 40% | – | – | – | – | 42% | 46.8% | 47.6% | 42.1% | – | – | – | CE7scFv-IgG4hinge-CD28tm/4-1BB-zeta (short) CD171-specific chimeric receptor | – | – |
